Article PMC12021450

What was measured:
[1] = target: Trypanosoma brucei MSC-associated protein 1 (MCP1), wild type, His6-tagged (Trypanosoma brucei); assay: mass photometry; protein alone, 50 nM final in 50 mM HEPES-KOH pH 7.6, 50 mM NaCl, 2 mM MgCl2, 0.5 mM TCEP; pre-incubated at 2 uM at room temperature for 10 min; no tRNA; monomer to dimer
[2] = target: Trypanosoma brucei MSC-associated protein 1 (MCP1), wild type, His6-tagged (Trypanosoma brucei); assay: mass photometry; 50 nM protein with 25 nM tRNA^Ala (complex formed at 2 uM protein : 1 uM tRNA^Ala, room temperature, 10 min) in 50 mM HEPES-KOH pH 7.6, 50 mM NaCl, 2 mM MgCl2, 0.5 mM TCEP; monomer to dimer

Q: Which results are given for “Trypanosoma brucei MSC-associated protein 1 (MCP1), wild type, His6-tagged (natural protein)”?
A: percent of the protein population that is dimeric [1]: 17%; stoichiometry N [1]: 2; percent of the species in the dimer peak, with tRNA^Ala [2]: 31%; stoichiometry N [2]: 2
